Measured values from paper PMC3025350, “Regulation and Rate Enhancement during Transcription-Coupled DNA Repair”.
Residue numbers refer to the chain shown, from its start.

Experiments:
Settings in all cases: protein: recombinant; tags: N-terminal His; chain copies: 2; label: 32P; blunt
[1] = target: T1, UvrA K37A (Escherichia coli, UniProt P0A698 1-940, K37A); test: EMSA; 2 mM ATP; binding detected at <300 nM UvrA; EMSA, 1 nM 32P-labeled 50 bp duplex, 2 mM ATP, 20 min at 37°C; buffer, salt and pH not given in the material
T1 sequence: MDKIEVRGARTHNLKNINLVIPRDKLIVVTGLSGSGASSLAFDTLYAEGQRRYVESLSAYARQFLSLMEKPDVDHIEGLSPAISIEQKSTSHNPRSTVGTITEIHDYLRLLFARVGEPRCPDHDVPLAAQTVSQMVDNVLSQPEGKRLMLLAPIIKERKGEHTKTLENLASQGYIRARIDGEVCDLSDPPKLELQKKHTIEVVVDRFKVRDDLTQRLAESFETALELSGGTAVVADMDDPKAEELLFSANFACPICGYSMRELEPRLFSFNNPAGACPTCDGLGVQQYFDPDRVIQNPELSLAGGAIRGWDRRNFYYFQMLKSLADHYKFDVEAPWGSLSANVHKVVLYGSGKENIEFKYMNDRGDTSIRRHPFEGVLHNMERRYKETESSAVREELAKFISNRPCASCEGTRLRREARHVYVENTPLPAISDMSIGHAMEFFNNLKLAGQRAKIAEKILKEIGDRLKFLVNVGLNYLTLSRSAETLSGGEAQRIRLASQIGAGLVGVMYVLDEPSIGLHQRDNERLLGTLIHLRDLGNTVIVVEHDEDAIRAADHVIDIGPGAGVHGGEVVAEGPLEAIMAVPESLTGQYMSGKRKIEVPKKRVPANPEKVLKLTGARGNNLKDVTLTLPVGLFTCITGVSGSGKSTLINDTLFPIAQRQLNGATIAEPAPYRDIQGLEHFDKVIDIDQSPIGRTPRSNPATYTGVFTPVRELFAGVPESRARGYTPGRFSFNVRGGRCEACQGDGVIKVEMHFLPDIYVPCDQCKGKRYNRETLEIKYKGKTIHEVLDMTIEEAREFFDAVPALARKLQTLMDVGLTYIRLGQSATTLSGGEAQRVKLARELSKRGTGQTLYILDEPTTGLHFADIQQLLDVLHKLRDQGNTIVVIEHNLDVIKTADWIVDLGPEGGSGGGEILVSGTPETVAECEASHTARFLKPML

[2] = target: T2, UvrA G502D (Escherichia coli, UniProt P0A698 1-940, G502D); test: as above
T2 sequence: T1 sequence with A37K, G502D

[3] = target: T3, UvrA WT (Escherichia coli, UniProt P0A698 1-940); test: EMSA; 2 mM ATP; EMSA, 1 nM 32P-labeled 50 bp duplex, 2 mM ATP, 20 min at 37°C; buffer, salt and pH not given in the material
T3 sequence: T1 sequence with A37K

[4] = target: T4, UvrA R712A R722A R724A R730A (Escherichia coli, UniProt P0A698 1-940, R712A;R722A;R724A;R730A); test: EMSA; 2 mM ATP; no binding detected at 800 nM UvrA; EMSA, 1 nM 32P-labeled 50 bp duplex, 2 mM ATP, 20 min at 37°C; buffer, salt and pH not given in the material
T4 sequence: T1 sequence with A37K, R712A, R722A, R724A, R730A

B1: 50 bp duplex with single FldT adduct (dsDNA)
DNA 1: CTAGGATCGGATAGCGCATGACAGTGACTGGATCGACAGCGTCGTATGAG
DNA 2: CTCATACGACGCTGTCGATCCAGTCACTGTCATGCGCTATCCGATCCTAG
modifications: fluorescein-dT (FldT) at position 29 of strand 1
- binding result [1]: binds
- binding result [2]: binds
- Kd [3]: 5.6 ± 1 nM
- binding result [4]: no binding
